Measurements reported in patent publication US20100158904A1 (GLENMARK PHARMACEUTICALS S A, published 2010).

Experiments:
[1] = biological target: human α2β1 integrin (VLA-2) expressed on human cancer cell lines (human) (UniProt P17301); assay: flow cytometry, hIgG4-FITC control on HT-1080 cells
[2] = biological target: human α2β1 integrin (VLA-2) expressed on human cancer cell lines (human) (UniProt P17301); assay: flow cytometry, 10 µg/mL hIgG4-FITC control on AsPC-1 cells
[3] = biological target: human α2β1 integrin (VLA-2) expressed on human cancer cell lines (human) (UniProt P17301); assay: flow cytometry, 10 µg/mL hIgG4-FITC control on HPAF-II cells
[4] = biological target: human α2β1 integrin (VLA-2) expressed on human cancer cell lines (human) (UniProt P17301); assay: flow cytometry, 10 µg/mL hIgG4-FITC control on SK-BR-3 cells
[5] = biological target: T1, human α2β1 integrin (VLA-2) expressed on human cancer cell lines (human, UniProt P17301 30-1181; P05556 21-798); assay: inhibition of adhesion of HT-1080 cells to human collagen type I, mean of 3
T1 construct: also called α2 integrin; CD49b (α2 subunit)
T1 sequence (P17301 30-1181 E534K limits assumed, chain 1 of 2): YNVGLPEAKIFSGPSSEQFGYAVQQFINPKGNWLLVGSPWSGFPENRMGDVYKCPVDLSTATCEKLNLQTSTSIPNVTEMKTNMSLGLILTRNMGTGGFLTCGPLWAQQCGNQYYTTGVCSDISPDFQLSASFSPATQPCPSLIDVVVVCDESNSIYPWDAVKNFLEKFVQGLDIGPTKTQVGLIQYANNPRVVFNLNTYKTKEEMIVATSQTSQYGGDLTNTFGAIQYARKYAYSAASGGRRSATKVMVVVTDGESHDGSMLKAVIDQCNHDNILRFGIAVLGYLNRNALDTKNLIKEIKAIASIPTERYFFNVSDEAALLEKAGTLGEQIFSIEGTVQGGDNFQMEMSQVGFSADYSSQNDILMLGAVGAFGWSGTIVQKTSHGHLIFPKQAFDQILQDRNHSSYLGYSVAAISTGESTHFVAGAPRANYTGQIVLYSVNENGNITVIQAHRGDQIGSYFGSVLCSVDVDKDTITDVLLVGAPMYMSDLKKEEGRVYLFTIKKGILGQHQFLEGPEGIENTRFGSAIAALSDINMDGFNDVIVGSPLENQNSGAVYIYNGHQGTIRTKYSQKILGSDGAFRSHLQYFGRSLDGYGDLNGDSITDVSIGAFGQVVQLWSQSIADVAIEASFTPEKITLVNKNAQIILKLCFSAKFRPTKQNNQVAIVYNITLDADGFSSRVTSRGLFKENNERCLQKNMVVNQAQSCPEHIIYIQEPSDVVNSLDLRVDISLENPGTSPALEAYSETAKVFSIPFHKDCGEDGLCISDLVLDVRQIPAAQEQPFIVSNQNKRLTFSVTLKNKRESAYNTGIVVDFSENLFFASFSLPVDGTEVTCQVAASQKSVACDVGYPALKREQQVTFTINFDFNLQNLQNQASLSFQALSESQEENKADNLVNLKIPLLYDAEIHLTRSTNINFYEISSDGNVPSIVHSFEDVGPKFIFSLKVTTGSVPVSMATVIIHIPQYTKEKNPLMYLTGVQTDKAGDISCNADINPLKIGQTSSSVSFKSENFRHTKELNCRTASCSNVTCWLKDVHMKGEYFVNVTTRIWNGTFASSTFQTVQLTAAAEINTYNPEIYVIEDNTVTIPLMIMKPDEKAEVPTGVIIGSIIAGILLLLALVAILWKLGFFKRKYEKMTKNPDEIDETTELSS
T1 sequence (P05556 21-798 limits assumed, chain 2 of 2): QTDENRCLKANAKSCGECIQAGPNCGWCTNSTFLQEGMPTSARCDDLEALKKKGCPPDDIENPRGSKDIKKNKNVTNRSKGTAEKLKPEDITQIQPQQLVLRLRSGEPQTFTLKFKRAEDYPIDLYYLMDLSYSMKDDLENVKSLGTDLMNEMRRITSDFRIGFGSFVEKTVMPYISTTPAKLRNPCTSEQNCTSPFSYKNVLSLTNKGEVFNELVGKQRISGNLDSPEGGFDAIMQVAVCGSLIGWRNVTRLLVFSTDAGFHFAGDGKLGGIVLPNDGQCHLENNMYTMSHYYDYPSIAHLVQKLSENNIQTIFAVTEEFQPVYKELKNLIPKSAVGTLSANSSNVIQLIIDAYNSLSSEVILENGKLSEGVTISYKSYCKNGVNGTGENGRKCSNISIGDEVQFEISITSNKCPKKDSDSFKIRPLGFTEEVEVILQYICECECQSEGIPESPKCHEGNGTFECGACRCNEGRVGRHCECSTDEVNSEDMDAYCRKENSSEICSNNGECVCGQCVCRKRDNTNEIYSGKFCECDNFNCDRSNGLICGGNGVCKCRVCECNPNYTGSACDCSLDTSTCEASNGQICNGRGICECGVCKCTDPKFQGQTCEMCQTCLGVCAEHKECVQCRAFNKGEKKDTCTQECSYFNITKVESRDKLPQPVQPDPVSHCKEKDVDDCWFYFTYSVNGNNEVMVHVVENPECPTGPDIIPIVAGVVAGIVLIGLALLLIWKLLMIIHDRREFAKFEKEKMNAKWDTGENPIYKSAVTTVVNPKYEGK
Method: (§1) Ninety six well ELISA plates (black cliniplate, Thermo Firsher scientific, cat n^o 9502867) were coated with 100 μl of human collagen type I (SIGMA, cat n^o C7774) at 50 μg/mL in Acetic Acid 0.02N or in PBS. Collagen was either diluted in acetic acid and incubated for 1 hour at 37° C. or diluted in PBS and incubated overnight at 4° C. Plates were blocked with 150 μl of PBS supplemented with 0.1% BSA or 1% BSA (Sigma, cat n^o A3059). Cells were first labelled with CFSE (Invitrogen cat n^o C34554) into serum free DMEM medium (PAA, cat n^o E15-005). Three μl of a 15 mM CFSE solution was added to 5 ml cells at a concentration between 1×10⁶ cells/ml to 0.6×10⁶ cells/ml. Cells were incubated with CFSE for 10 minutes at 37° C. and CFSE excess was removed by centrifugation of the cells at 900 rpm for 3 min. CFSE-labelled cells were resuspended at a concentration between 0.6×10⁶ to 1×10⁶ cells/ml in DMEM supplemented with 0.1% BSA. […] Wells in the plates were filled with PBS and fluorescence with excitation at 498 nm and emission at 525 nm was measured using Synerg HT2 fluorometer. Data were analyzed using PRISM software. Activity of the anti-VLA-2 antibody was expressed as EC₅₀ which is defined as the concentration of antibody that provokes a response halfway between the baseline and the maximum response. […]

[6] = biological target: T1, human α2β1 integrin (VLA-2) expressed …; assay: inhibition of cell adhesion to human collagen type I; ratio between two cell lines
Method: as §1

[7] = biological target: T1, human α2β1 integrin (VLA-2) expressed …; assay: inhibition of adhesion of AsPC-1 cells to human collagen type I, mean of 2 experiments
Method: as §1

[8] = biological target: T1, human α2β1 integrin (VLA-2) expressed …; assay: inhibition of adhesion of HPAF-II cells to human collagen type I, mean of 2 experiments
Method: as §1

[9] = biological target: T1, human α2β1 integrin (VLA-2) expressed …; assay: inhibition of adhesion of CFSE-labelled AsPC-1 cells to human collagen type I, experiment I
Method: as §1

[10] = biological target: T1, human α2β1 integrin (VLA-2) expressed …; assay: inhibition of adhesion of CFSE-labelled AsPC-1 cells to human collagen type I, experiment II
Method: as §1

[11] = biological target: T1, human α2β1 integrin (VLA-2) expressed …; assay: inhibition of adhesion of CFSE-labelled HPAF-II cells to human collagen type I, experiment I
Method: as §1

[12] = biological target: T1, human α2β1 integrin (VLA-2) expressed …; assay: inhibition of adhesion of CFSE-labelled HPAF-II cells to human collagen type I, experiment II
Method: as §1

[13] = biological target: T1, human α2β1 integrin (VLA-2) expressed …; assay: inhibition of adhesion of SK-BR-3 cells to human collagen type I, mean of 2 experiments
Method: as §1

[14] = biological target: T1, human α2β1 integrin (VLA-2) expressed …; assay: inhibition of adhesion of CFSE-labelled SK-BR-3 cells to human collagen type I, experiment I
Method: as §1

[15] = biological target: T1, human α2β1 integrin (VLA-2) expressed …; assay: inhibition of adhesion of CFSE-labelled SK-BR-3 cells to human collagen type I, experiment II
Method: as §1

Sequence of human α2β1 integrin (VLA-2) expressed on human cancer cell lines (human) (P17301 30-1181 E534K limits assumed, chain 1 of 2): as the sequence (P17301 30-1181 E534K limits assumed, chain 1 of 2) above
Sequence of human α2β1 integrin (VLA-2) expressed on human cancer cell lines (human) (chain, as listed by the source limits assumed, chain 2 of 2): as the sequence (P05556 21-798 limits assumed, chain 2 of 2) above

MFI [1] | MFI [2] | MFI [3] | MFI [4] | EC50 [5] [µg/mL] | fold EC50 on HPAF-II cells against EC50 on AsPC-1 cells [6] [fold] | EC50 [7] [µg/mL] | EC50 [8] [µg/mL] | EC50 [9] [µg/mL] | EC50 [10] [µg/mL] | EC50 [11] [µg/mL] | EC50 [12] [µg/mL] | EC50 [13] [µg/mL] | EC50 [14] [µg/mL] | EC50 [15] [µg/mL] | Molecule
4.9 | 6.8 | 14.9 | 3.4 | – | – | – | – | – | – | – | – | – | – | – | hIgG4 isotype control antibody
– | – | – | – | 0.097 | 3.6 | 0.08 | 0.29 | 0.074 | 0.087 | 0.326 | 0.253 | – | – | – | TMC-2206, mouse anti-human α2 integrin antibody (BHA2.1 hybridoma) (antibody, V domains shown, Murine monoclonal antibody (Glenmark/Millipore, cat. MAB1998); also called MAB1998) VH: QVQLKESGPGLVAPSQSLSITCTVSGFSLTNYGIHWVRQPPGKGLEWLGVIWARGFTNYNSALMSRLIITKDNSQSQVFLKMNSLQPDDSATYFCARANDGVYYAMDYWGQGTSVTVSS VL: QFVLTQSPAFLSASPGEKVTMTCSANSSVNYIHWYQQKSGTSPKKWIYDTSKLASGVPVRFSGSGSGTSYSLTISSMETEDAATYYCQQWTTNPLTFGAGTRVELK
– | – | – | – | 0.076 | 3.9 | 0.041 | 0.163 | 0.047 | 0.036 | 0.224 | 0.103 | 0.036 | 0.039 | 0.032 | GBR500, humanized anti-human α2 integrin antibody (antibody, human IgG4, kappa, V domains shown, Its isotype-matched control is a humanized IgG4; also called GBR500-FITC; Biotin-GBR500) VH: QVQLQESGPGLVKPSETLSLTCTVSGFSLTNYGIHWIRQPPGKGLEWLGVIWARGFTNYNSALMSRLTISKDNSKNQVSLKLSSVTAADTAVYYCARANDGVYYAMDYWGQGTLVTVSS VL: DFVMTQSPAFLSVTPGEKVTITCSAQSSVNYIHWYQQKPDQAPKKLIYDTSKLASGVPSRFSGSGSGTDYTFTISSLEAEDAATYYCQQWTTNPLTFGQGTKVEIKR
